Source: paper PMC7041945, “Misfolded proteins bind and activate death receptor 5 to trigger apoptosis during unresolved endoplasmic reticulum stress” (eLife, 2020)

Tested on: CHOP, BiP, and DR5 mRNA in HCT116 cells
Assay: qPCR of UPR target transcripts (CHOP, BiP, DR5)
Format: cell-based, Homo sapiens
Details: for avg. fold induction relative to empty traffo, BiP / avg. fold induction relative to empty traffo, CHOP / avg. fold induction relative to empty traffo, DR5 total: norm to GAPDH; for 2^-(deltaCq) BiP / 2^-(deltaCq) CHOP / 2^-(deltaCq) DR5 total: vs GAPDH
Method: Cells were grown in 6-well plates and harvested with 0.5 ml of TRIzol reagent (Life Technologies) per manufacturer’s protocol to extract RNA. For cDNA synthesis, 500 ng of total RNA was reverse transcribed with 2 μl of the SuperScript VILO master mix (Life Technologies # 11755050) in a total reaction volume of 10 μl following the manufacturer’s protocol for reaction temperature and duration. The reverse transcription product was diluted to 200 μl with 10 mM Tris-HCl pH 8.2 and used at 1:100 dilution for subsequent RT-PCR reactions.
PCR samples were prepared as described by manufacturer’s protocols from iQ SYBR Green Supermix (BioRad #17088800).
For each experiment, qRT-PCR reactions were set up in triplicate and run using a CFX96 Real Time System (Bio-Rad). Quantitation cycles were determined with CFX Manager 3.0 software (Bio-Rad) and then normalized to GAPDH as an internal control.

[1] = HCT116, pRK CHOP 31 ng, Sheet1, replicate 1

B1: pRK CHOP (protein, UniProt P35638 1-169, looked up)
DNA damage-inducible …: MAAESLPFSFGTLSSWELEAWYEDLQEVLSSDENGGTYVSPPGNEEEESKIFTTLDPASLAWLTEEEPEPAEVTSTSQSPHSPDSSQSSLAQEEEEEDQGRTRKRKQSGHSPARAGKQRMKEKEQENERKVAQLAEENERLKQEIERLTREVEATRRALIDRMVNLHQA
modifications: expression plasmid
avg. fold induction relative to empty traffo, BiP (HCT116, 31 ng): 0.2997 fold | avg. fold induction relative to empty traffo, CHOP (HCT116, 31 ng): 18.7911 fold | fold induction relative to empty traffo, BiP (HCT116, 31 ng, replicate 1): 0.28 fold | fold induction relative to empty traffo, CHOP (HCT116, 31 ng, replicate 1): 16.3851 fold | fold induction relative to empty traffo, DR5 total (HCT116, 31 ng, replicate 1): 0.9029 fold | fold induction relative to empty traffo, BiP (HCT116, 31 ng, replicate 2): 0.3243 fold | fold induction relative to empty traffo, CHOP (HCT116, 31 ng, replicate 2): 19.1521 fold | fold induction relative to empty traffo, DR5 total (HCT116, 31 ng, replicate 2): 0.9212 fold | fold induction relative to empty traffo, BiP (HCT116, 31 ng, replicate 3): 0.2949 fold | fold induction relative to empty traffo, CHOP (HCT116, 31 ng, replicate 3): 20.8362 fold | fold induction relative to empty traffo, DR5 total (HCT116, 31 ng, replicate 3): 2.023 fold | 2^-(deltaCq) BiP (HCT116, 31 ng, replicate 1): 0.02437 | 2^-(deltaCq) CHOP (HCT116, 31 ng, replicate 1): 0.1729 | 2^-(deltaCq) DR5 total (HCT116, 31 ng, replicate 1): 0.01464 | 2^-(deltaCq) BiP (HCT116, 31 ng, replicate 2): 0.02822 | 2^-(deltaCq) CHOP (HCT116, 31 ng, replicate 2): 0.2021 | 2^-(deltaCq) DR5 total (HCT116, 31 ng, replicate 2): 0.01494 | 2^-(deltaCq) BiP (HCT116, 31 ng, replicate 3): 0.02567 | 2^-(deltaCq) CHOP (HCT116, 31 ng, replicate 3): 0.2199 | 2^-(deltaCq) DR5 total (HCT116, 31 ng, replicate 3): 0.0328 | avg. fold induction relative to empty traffo, BiP (HCT116, 62 ng): 0.334 fold | avg. fold induction relative to empty traffo, CHOP (HCT116, 62 ng): 50.7204 fold | avg. fold induction relative to empty traffo, DR5 total (HCT116, 62 ng): 0.954 fold | fold induction relative to empty traffo, BiP (HCT116, 62 ng, replicate 1): 0.3561 fold | fold induction relative to empty traffo, CHOP (HCT116, 62 ng, replicate 1): 46.9347 fold | fold induction relative to empty traffo, DR5 total (HCT116, 62 ng, replicate 1): 0.9555 fold | fold induction relative to empty traffo, BiP (HCT116, 62 ng, replicate 2): 0.3335 fold | fold induction relative to empty traffo, CHOP (HCT116, 62 ng, replicate 2): 49.2833 fold | fold induction relative to empty traffo, DR5 total (HCT116, 62 ng, replicate 2): 1.032 fold | fold induction relative to empty traffo, BiP (HCT116, 62 ng, replicate 3): 0.3124 fold | fold induction relative to empty traffo, CHOP (HCT116, 62 ng, replicate 3): 55.9433 fold | fold induction relative to empty traffo, DR5 total (HCT116, 62 ng, replicate 3): 0.8745 fold | 2^-(deltaCq) BiP (HCT116, 62 ng, replicate 1): 0.031 | 2^-(deltaCq) CHOP (HCT116, 62 ng, replicate 1): 0.4954 | 2^-(deltaCq) DR5 total (HCT116, 62 ng, replicate 1): 0.01549 | 2^-(deltaCq) BiP (HCT116, 62 ng, replicate 2): 0.02903 | 2^-(deltaCq) CHOP (HCT116, 62 ng, replicate 2): 0.5202 | 2^-(deltaCq) DR5 total (HCT116, 62 ng, replicate 2): 0.01673 | 2^-(deltaCq) BiP (HCT116, 62 ng, replicate 3): 0.02719 | 2^-(deltaCq) CHOP (HCT116, 62 ng, replicate 3): 0.5905 | 2^-(deltaCq) DR5 total (HCT116, 62 ng, replicate 3): 0.01418 | avg. fold induction relative to empty traffo, BiP (HCT116, 125 ng): 0.5304 fold | avg. fold induction relative to empty traffo, CHOP (HCT116, 125 ng): 220.701 fold | avg. fold induction relative to empty traffo, DR5 total (HCT116, 125 ng): 1.17 fold | fold induction relative to empty traffo, BiP (HCT116, 125 ng, replicate 1): 0.6342 fold | fold induction relative to empty traffo, CHOP (HCT116, 125 ng, replicate 1): 230.561 fold | fold induction relative to empty traffo, DR5 total (HCT116, 125 ng, replicate 1): 1.242 fold | fold induction relative to empty traffo, BiP (HCT116, 125 ng, replicate 2): 0.5274 fold | fold induction relative to empty traffo, CHOP (HCT116, 125 ng, replicate 2): 173.762 fold | fold induction relative to empty traffo, DR5 total (HCT116, 125 ng, replicate 2): 1.206 fold | fold induction relative to empty traffo, BiP (HCT116, 125 ng, replicate 3): 0.4295 fold | fold induction relative to empty traffo, CHOP (HCT116, 125 ng, replicate 3): 257.78 fold | fold induction relative to empty traffo, DR5 total (HCT116, 125 ng, replicate 3): 1.064 fold | 2^-(deltaCq) BiP (HCT116, 125 ng, replicate 1): 0.0552 | 2^-(deltaCq) CHOP (HCT116, 125 ng, replicate 1): 2.434 | 2^-(deltaCq) DR5 total (HCT116, 125 ng, replicate 1): 0.02013 | 2^-(deltaCq) BiP (HCT116, 125 ng, replicate 2): 0.04591 | 2^-(deltaCq) CHOP (HCT116, 125 ng, replicate 2): 1.834 | 2^-(deltaCq) DR5 total (HCT116, 125 ng, replicate 2): 0.01955 | 2^-(deltaCq) BiP (HCT116, 125 ng, replicate 3): 0.03739 | 2^-(deltaCq) CHOP (HCT116, 125 ng, replicate 3): 2.7208 | 2^-(deltaCq) DR5 total (HCT116, 125 ng, replicate 3): 0.01725 | avg. fold induction relative to empty traffo, BiP (HCT116, 250 ng): 0.5014 fold | avg. fold induction relative to empty traffo, CHOP (HCT116, 250 ng): 408.627 fold | avg. fold induction relative to empty traffo, DR5 total (HCT116, 250 ng): 0.9069 fold | fold induction relative to empty traffo, BiP (HCT116, 250 ng, replicate 1): 0.6408 fold | fold induction relative to empty traffo, CHOP (HCT116, 250 ng, replicate 1): 391.947 fold | fold induction relative to empty traffo, DR5 total (HCT116, 250 ng, replicate 1): 0.8794 fold | fold induction relative to empty traffo, BiP (HCT116, 250 ng, replicate 2): 0.4446 fold | fold induction relative to empty traffo, CHOP (HCT116, 250 ng, replicate 2): 418.188 fold | fold induction relative to empty traffo, DR5 total (HCT116, 250 ng, replicate 2): 0.9861 fold | fold induction relative to empty traffo, BiP (HCT116, 250 ng, replicate 3): 0.4188 fold | fold induction relative to empty traffo, CHOP (HCT116, 250 ng, replicate 3): 415.746 fold | fold induction relative to empty traffo, DR5 total (HCT116, 250 ng, replicate 3): 0.8551 fold | 2^-(deltaCq) BiP (HCT116, 250 ng, replicate 1): 0.05578 | 2^-(deltaCq) CHOP (HCT116, 250 ng, replicate 1): 4.1369 | 2^-(deltaCq) DR5 total (HCT116, 250 ng, replicate 1): 0.01426 | 2^-(deltaCq) BiP (HCT116, 250 ng, replicate 2): 0.0387 | 2^-(deltaCq) CHOP (HCT116, 250 ng, replicate 2): 4.414 | 2^-(deltaCq) DR5 total (HCT116, 250 ng, replicate 2): 0.01599 | 2^-(deltaCq) BiP (HCT116, 250 ng, replicate 3): 0.03645 | 2^-(deltaCq) CHOP (HCT116, 250 ng, replicate 3): 4.3881 | 2^-(deltaCq) DR5 total (HCT116, 250 ng, replicate 3): 0.01387 | avg. fold induction relative to empty traffo, BiP (HCT116, 500 ng): 0.5375 fold | avg. fold induction relative to empty traffo, CHOP (HCT116, 500 ng): 1484.73 fold | avg. fold induction relative to empty traffo, DR5 total (HCT116, 500 ng): 1.792 fold | fold induction relative to empty traffo, BiP (HCT116, 500 ng, replicate 1): 0.5213 fold | fold induction relative to empty traffo, CHOP (HCT116, 500 ng, replicate 1): 1691.32 fold | fold induction relative to empty traffo, DR5 total (HCT116, 500 ng, replicate 1): 1.92 fold | fold induction relative to empty traffo, BiP (HCT116, 500 ng, replicate 2): 0.6638 fold | fold induction relative to empty traffo, CHOP (HCT116, 500 ng, replicate 2): 1384.67 fold | fold induction relative to empty traffo, DR5 total (HCT116, 500 ng, replicate 2): 1.724 fold | fold induction relative to empty traffo, BiP (HCT116, 500 ng, replicate 3): 0.4274 fold | fold induction relative to empty traffo, CHOP (HCT116, 500 ng, replicate 3): 1378.19 fold | fold induction relative to empty traffo, DR5 total (HCT116, 500 ng, replicate 3): 1.731 fold | 2^-(deltaCq) BiP (HCT116, 500 ng, replicate 1): 0.04537 | 2^-(deltaCq) CHOP (HCT116, 500 ng, replicate 1): 17.8515 | 2^-(deltaCq) DR5 total (HCT116, 500 ng, replicate 1): 0.03114 | 2^-(deltaCq) BiP (HCT116, 500 ng, replicate 2): 0.05778 | 2^-(deltaCq) CHOP (HCT116, 500 ng, replicate 2): 14.6148 | 2^-(deltaCq) DR5 total (HCT116, 500 ng, replicate 2): 0.02796 | 2^-(deltaCq) BiP (HCT116, 500 ng, replicate 3): 0.0372 | 2^-(deltaCq) CHOP (HCT116, 500 ng, replicate 3): 14.5464 | 2^-(deltaCq) DR5 total (HCT116, 500 ng, replicate 3): 0.02807 | CHOP (qPCR CHOP, Sheet1) [1]: 16.3851 | DR5 (qPCR CHOP, Sheet1) [1]: 0.9029 | GADD34 (qPCR CHOP, Sheet1) [1]: 0.958
